Results from patent publication US12194082B2, “Compositions and methods for treatment of homocystinuria” (THE REGENTS OF THE UNIVERSITY OF COLORADO, priority 2016, dated 2025).
“And” between values parts separate entries of the source, which are not always exact repeats. Equal values may be shown once.

Experiments:
[1] = tested on: homocysteine, cystathionine, cysteine; test: Pharmacodynamics after a single dose of PEGylated htCBS C15S in HO mice; assay type: in vivo
Procedure: (§1) Plasma metabolites homocysteine, cystathionine and cysteine were determined by stable-isotope-dilution liquid chromatography mass spectrometry as previously described in (Allen et al., 1993, Metabolism, 42: 1448-1460). Measurements of total non-protein bound homocysteine and other aminothiols as well as of amino acids in tissue were performed as described in (Maclean et al., 2010b. Mol. Genet. Metab. 101, 153-162). Metabolites were determined by stable-isotope-dilution liquid chromatography mass spectrometry.
For 20NHS PEG-htCBS C15S, HO mice were administered SQ a dose of 5, 10 or 15 mg/kg dose or were administered IV a dose of 10 mg/kg. For 400MA-htCBS C15S, HO mice received a single dose of 10 mg/kg either SC or IV of one of the three forms: (i) a mixture of all species, where no separation of individual forms has been attempted (mix), (ii) a homoPEGylated specie (Peak 1), and (iii) a hetero/hemiPEGylated species (Peak 2).
Both male and female HO mice were used in this example, and each group contained 3 to 4 mice. Two groups of mice designated “A” and “B” were used for each route of administration to minimize the blood volume taken from any one mouse. For SC administration, blood was collected from group A at 0.5, 3, 24, and 72 hours post-injection and from group B at 1, 6, 48, and 96 hours post-injection. […]

[2] = tested on: I278T −/− homozygous mice; test: Facial alopecia in I278T mice; assay type: in vivo, mouse; settings: 3 times per week, start W24-W28, up to about 1 year
Procedure: 3 W old mice not showing any signs of facial alopecia were split into 2 groups. The first group (n=3 males) was injected with 7.5 mg/kg three times per week with 200MA0B PEG-htCBS C15S for a period of 6 weeks. Physical look was recorded before the experiment and monitored weekly, then bi-weekly after the 6 W injection regimen. Metabolite levels were checked before the experiment and 24 hours after the last injection, i.e. after the 6 W injection regimen.
(§2) The second group (n=3; 2 males, 1 female) was continuously injected with 7.5 mg/kg of 200MA0B PEG-htCBS C15S administered subcutaneously from 3 W of age until 41 weeks of age. Weight was initially monitored weekly. Physical look was recorded before the experiment and was monitored weekly or bi-weekly after the initial 6 W injection regimen. Metabolite levels were checked before the experiment and 24 hours after the last injection of initial 6 W injection regiment and then followed weekly or bi-weekly.
(§3) The I278T mice, which were at least 120D (W17) old and had visible, fully developed facial alopecia, were split into 2 groups. […] Metabolite levels were determined prior to the treatment initiation and measured during the study 24 hours after the injection, and weight and physical look were initially monitored weekly, and later bi-weekly.

[3] = tested on: Hcy, Cys; test: Plasma metabolites in the I278T facial alopecia study; assay type: in vivo, I278T mice; settings: 3 times per week, 24 hours after injection
Procedure: as §1, §2, §3

[4] = tested on: KO mice; test: DEXA bone mineralization and body composition in KO mice; assay type: in vivo, mouse; settings: 7.5 mg/kg SC 3x/week from day 2 to about 5 months
Procedure: A PIXImusII DEXA scanner (GE Lunar Medical Systems) specifically designed for scanning small animals such as mice was used for DEXA analysis. This machine enabled quick and efficient determination of the body composition (lean, fat mass, and bone density) of a mouse before terminal tissue extraction procedures. Mice were fasted for 4 hours prior to the DEXA measurement to remove food from the gastro-intestinal tract. Mice were then anesthetized using IP bolus injection of 60 mg/kg ketamine and 15 mg/kg xylazine and placed on a tray in the DEXA machine. After the measurement was done (3˜5 minutes), the mice were removed from the DEXA machine and used in terminal procedures, such as tissue extractions.
The bone mineral density (BMD) and bone mineral content (BMC) were analyzed by DEXA for three groups of mice: +/− healthy heterozygous controls (n=4M+6F), affected KO controls (n=5M+13F), and 20NHS PEG-htCBS C15S (C15S/ME-200GS)-treated KO mice (n=6M+15F). The 20NHS PEG-htCBS C15S-treated mice were administered 7.5 mg/kg subcutaneously (SC) three times a week from day 2 to about 5 months. All −/− KO mice were treated for the initial 5 W (from 2 to 35 days of age) to prevent neonatal lethality.

[5] = tested on: Hcy, Cth, Cys; test: Plasma metabolites in I278T mice of the eye study; assay type: in vivo; settings: 7.5 mg/kg SC 3x/week
Procedure: The changes in metabolite levels in plasma were measured in I278T (+/−) healthy heterozygous control mice, untreated −/− affected homozygous control mice, and 20NHS PEG-htCBS C15S-treated −/− homozygous I278T mice. The 20NHS PEG-htCBS C15S (C15S/ME-200GS)-treated mice were administered 7.5 mg/kg subcutaneously (SC) 3 times per week from the age of 2 days up to the age of 4 months. Levels measured beginning at 72 hours after the injection as mice were on the treatment from 2 days of age.

[6] = Pharmacokinetics of 20NHS PEG-htCBS C15S in rats; settings: for AUC/dose corrected to 80% bioavailability / Cmax/dose corrected to 80% bioavailability / tmax: SC
Procedure: CBS activity was determined by a radioisotope assay with C^14-labeled serine as a substrate. Ten μl (total 490 ng) of pure htCBS in dilution buffer (0.1 M Tris-HCl pH=8.6, 1 mM DTT, 10 μM PLP, 0.5 mg/ml BSA) or 10 μl of plasma were added to 85 μl of reaction mixture containing 0.1 M Tris-HCl pH=8.6, 10 mM L-serine, 0.5 mM PLP, 0.5 mg/ml BSA and 0.3 μCi (for pure enzyme) or 0.45 μCi (for plasma) of L-[C^14(U)]-Serine. Samples were incubated for 5 min at 37° C. and reaction was initiated by addition of 5 μl of 0.2 M Hcy (10 mM final concentration). Following 30 min of incubation at 37° C., a 20 μl aliquot of the assay mixture was applied onto a grade 3 CHR Whatman (NJ, USA) paper. Assay initiation and sampling of the resulting mixture were staggered so that each reaction time was 30 minutes. Descending paper chromatography was used to isolate the radioactive product (Cth) from a labeled substrate (Ser). The C^14-cystathionine formed in the reaction was separated from C^14-serine by an overnight descending paper chromatography in 2-propanol/formic acid/H2O (75:5.7:18.9 v/v). Radioactivity in the area of the marker cystathionine (detected by staining the marker lane with ninhydrin) was determined by cutting the chromatogram into strips that were submerged in 5 ml of Opti-fluor scintillation cocktail (PerkinElmer, MA, USA) and counted in a Beckman LS-3801 scintillation counter. An enzyme-free sample was used as a blank to monitor the background radioactivity that was then subtracted from each sample. For pure enzyme, specific activity values are expressed as enzyme units (the amount of enzyme that produces 1 μmol of cystathionine/hour) per mg of CBS, and for plasma samples as units per μl plasma.
The pharmacokinetic (PK) parameters were calculated using a non-compartmental curve stripping model which resolves a curve into a series of exponential terms corresponding to the absorption, distribution and elimination phases occurring during the time course of the enzyme in the blood. The curve stripping approach assumes that the disposition phases of the drug follow apparent first-order kinetics, which is evidenced by the linearity in the terminal portion of a semi-log plot. These calculations were made using a modeling program called PK Solutions 2.0 (Summit Solutions, Montrose, CO) using the mean plasma enzyme activity for each route of administration. The bioavailability was calculated by dividing the area under the curve (AUC) for the SC or IP route by the AUC observed after IV administration.
In order to assess the pharmacokinetics of 20NHS PEG-htCBS C15S in rats, wild-type Sprague Dawley rats were injected with a single dose of 20NHS PEG-htCBS C15S through intra-vascular (IV) or sub-cutaneous (SC) routes. The design of a third (repeated dose) PK study (groups 7-9) was adjusted to allow extraction of data after the first dose and thus their combination with a single dose PK study (groups 1-6).
To further evaluate rats as a species for conducting long-term toxicity studies, the pharmacokinetics of 20NHS PEG-htCBS C15S was determined in three groups of Sprague Dawley rats receiving a total of 9 SC injections every 48 hours of either 4 mg/kg (low), 8 mg/kg (mid), or 24 mg/kg (high) 20NHS PEG-htCBS C15S. […] The experiment was conducted for a length of 24 days.

Substance: 20NHS PEG-htCBS C15S: htCBS C15S PEGylated with ME-200GS PEG (20 kDa linear NHS ester-activated PEG)
- single dose producing maximal efficacy response ([1]; SC, HO mouse model): 5 mg/kg
- plasma levels of Hcy over time ([1]; single 10 mg/kg SC dose): remain decreased up to 72 hours
- animals responding (reversal of fully developed facial alopecia) [2]: 4 out of 4
- Hcy and Cys change vs 400MA PEG-htCBS C15S [3]: decrease Hcy levels and increase Cys levels more substantially
- BMD vs control groups [4]: significantly higher BMD than both control groups
- osteoporosis and body composition (DEXA) [4]: completely prevented profound osteoporosis and improved body composition
- plasma Cth ([5]; throughout the study): around 50 μM
- plasma Cys ([5]; throughout the study): around 230 μM
- plasma Hcy ([5]; decreased from 230 μM): about 70 μM
- plasma CBS activity on repeated dosing ([6]; 9 SC injections every 48 hours, 4, 8 or 24 mg/kg): substantial decline in peak CBS activities
- AUC/dose corrected to 80% bioavailability ([6]; Rat/Female): 1233 (mU-h/mL)/(mg/kg)
- Cmax/dose corrected to 80% bioavailability ([6]; Rat/Female): 16 (mU/μL)/(mg/kg)
- tmax ([6]; Rat/Female): 29 h
- AUC/dose corrected to 80% bioavailability ([6]; Rat/Male): 1452 (mU-h/mL)/(mg/kg)
- Cmax/dose corrected to 80% bioavailability ([6]; Rat/Male): 17 (mU/μL)/(mg/kg)
- tmax ([6]; Rat/Male): 35 h
- AUC0−t (obs area) ([6]; females, 4 mg/kg IV): 6165 mU-h/μl
- Bioavailability ([6]; females, 4 mg/kg IV): 100%
- MRT (area) ([6]; females, 4 mg/kg IV): 45.5 h
- cp0 ([6]; females, 4 mg/kg IV): 186.2 mU/μl
- AUC0−t (obs area) ([6]; females, 8 mg/kg SC): 4505 mU-h/μl
- Bioavailability ([6]; females, 8 mg/kg SC): 36.5%
- MRT (area) ([6]; females, 8 mg/kg SC): 76.8 h
- cmax ([6]; females, 8 mg/kg SC): 58.2 mU/μl
- tmax (obs) ([6]; females, 8 mg/kg SC): 24 h
- AUC0−t (obs area) ([6]; females, 24 mg/kg SC): 13135 mU-h/μl
- Bioavailability ([6]; females, 24 mg/kg SC): 35.5%
- MRT (area) ([6]; females, 24 mg/kg SC): 79.8 h
- cmax ([6]; females, 24 mg/kg SC): 166.3 mU/μl
- tmax (obs) ([6]; females, 24 mg/kg SC): 48 h
- bioavailability (F %) after SC administration ([6]; male rats, across doses): 19-21% and 20%
- AUC0−t (obs area) ([6]; males, 4 mg/kg IV): 7231 mU-h/μl
- Bioavailability ([6]; males, 4 mg/kg IV): 100%
- MRT (area) ([6]; males, 4 mg/kg IV): 52.9 h
- cp0 ([6]; males, 4 mg/kg IV): 182.1 mU/μl
- AUC0−t (obs area) ([6]; males, 8 mg/kg SC): 2703 mU-h/μl
- Bioavailability ([6]; males, 8 mg/kg SC): 18.7%
- MRT (area) ([6]; males, 8 mg/kg SC): 65.6 h
- cmax ([6]; males, 8 mg/kg SC): 32.7 mU/μl
- tmax (obs) ([6]; males, 8 mg/kg SC): 48 h
- AUC0−t (obs area) ([6]; males, 24 mg/kg SC): 9269 mU-h/μl
- Bioavailability ([6]; males, 24 mg/kg SC): 21.3%
- MRT (area) ([6]; males, 24 mg/kg SC): 66.1 h
- cmax ([6]; males, 24 mg/kg SC): 110.0 mU/μl
- tmax (obs) ([6]; males, 24 mg/kg SC): 38 h
